Data on 1 protein can be found in article PMC8524200, “Structural studies of codeinone reductase reveal novel insights into aldo-keto reductase function in benzylisoquinoline alkaloid biosynthesis” (The Journal of Biological Chemistry, 2021).

The series deals with the molecule itself. Put plainly: SEC; Superdex 200 (2.4 ml), 25 mM Tris-HCl pH 7.5, 150 mM KCl, 0.5 mM EDTA; COR1.3 0.5 mg/ml diluted in running buffer and incubated overnight at room temperature (oxidizing conditions); also run with 1 mM DTT in the buffer (reducing conditions: dimer destabilized).

B1: codeinone reductase COR1.3 isoform (enzyme, Papaver somniferum)
chain: MESNGVPMITLSSGIRMPALGMGTAETMVKGTEREKLAFLKAIEVGYRHFDTAAAYQSEECLGEAIAEALQLGLIKSRDELFITSKLWCADAHADLVLPALQNSLRNLKLDYLDLYLIHHPVSLKPGKFVNEIPKDHILPMDYKSVWAAMEECQTLGFTRAIGVCNFSCKKLQELMAAAKIPPVVNQVEMSPTLHQKNLREYCKANNIMITAHSVLGAICAPWGSNAVMDSKVLHQIAVARGKSVAQVSMRWVYQQGASLVVKSFNEGRMKENLKIFDWELTAENMEKISEIPQSRTSSADFLLSPTGPFKTEEEFWDEKD
modifications: intermolecular disulfide bond between Cys-220 of each protomer
notes: codeinone reductase isoform COR1.3, Papaver somniferum (AAF13738; Q9SQ68.1); The methods for size-exclusion chromatography say only 'purified COR1.3'; also called apo-COR
With B1, the “stoichiometry N” value turned out to be 2.
